± gives the standard deviation of the averaged measurements.
Test: total protein half-life in vivo (active degradation + dilution); higher = more stable protein
[1] = E. coli NCM3722 delta-clpP delta-lon delta-hslV, growth: N-lim chemostat, doubling time 6 h
[2] = E. coli NCM3722 delta-clpP, growth: N-lim chemostat, doubling time 6 h
[3] = E. coli NCM3722 delta-hslV, growth: N-lim chemostat, doubling time 6 h
[4] = E. coli NCM3722 delta-lon, growth: N-lim chemostat, doubling time 6 h
[5] = E. coli NCM3722 delta-smpB, growth: N-lim chemostat, doubling time 6 h
[6] = wild type E. coli NCM3722, growth: C-lim chemostat, doubling time 3 h
[7] = wild type E. coli NCM3722, growth: C-lim chemostat, doubling time 6 h
[8] = wild type E. coli NCM3722, growth: C-lim chemostat, doubling time 12 h
[9] = wild type E. coli NCM3722, growth: N-lim chemostat, doubling time 6 h
[10] = wild type E. coli NCM3722, growth: N-lim chemostat, doubling time 12 h
[11] = wild type E. coli NCM3722, growth: P-lim chemostat, doubling time 6 h
[12] = wild type E. coli NCM3722, growth: P-lim chemostat, doubling time 12 h

| Sequence | total protein half-life in vivo [1] [h] | total protein half-life in vivo [2] [h] | total protein half-life in vivo [3] [h] | total protein half-life in vivo [4] [h] | total protein half-life in vivo [5] [h] | total protein half-life in vivo [6] [h] | total protein half-life in vivo [7] [h] | total protein half-life in vivo [8] [h] | total protein half-life in vivo [9] [h] | total protein half-life in vivo [10] [h] | total protein half-life in vivo [11] [h] | total protein half-life in vivo [12] [h] |
| --- | --- | --- | --- | --- | --- | --- | --- | --- | --- | --- | --- | --- |
| MLKIFNTLTRQKEEFKPIHAGEVGMYVCGITVYDLCHIGHGRTFVAFDVVARYLRFLGYKLKYVRNITDIDDKIIKRANENGESFVAMVDRMIAEMHKDFDALNILRPDMEPRATHHIAEIIELTEQLIAKGHAYVADNGDVMFDVPTDPTYGVLSRQDLDQLQAGARVDVVDDKRNPMDFVLWKMSKEGEPSWPSPWGAGRPGWHIECSAMNCKQLGNHFDIHGGGSDLMFPHHENEIAQSTCAHDGQYVNYWMHSGMVMVDREKMSKSLGNFFTVRDVLKYYDAETVRYFLMSGHYRSQLNYSEENLKQARAALERLYTALRGTDKTVAPAGGEAFEARFIEAMDDDFNTPEAYSVLFDMAREVNRLKAEDMAAANAMASHLRKLSAVLGLLEQEPEAFLQSGAQADDSEVAEIEALIQQRLDARKAKDWAAADAARDRLNEMGIVLEDGPQGTTWRRK | 5.28 ± 0.8 | 4.75 ± 0.24 | 4.85 ± 0.22 | 5.1 ± 0.24 | 4.97 ± 0.14 | 3.24 ± 0.29 | 5.41 ± 0.088 | 9.907 ± 0.043 | 4.84 ± 0.17 | 7.97 ± 0.15 | 6.14 ± 0.47 | 11.5 ± 0.18 |
| MEFLMDPSIWAGLLTLVVLEIVLGIDNLVFIAILADKLPPKQRDKARLLGLSLALIMRLGLLSLISWMVTLTKPLFTVMDFSFSGRDLIMLFGGIFLLFKATTELHERLENRDHDSGHGKGYASFWVVVTQIVILDAVFSLDAVITAVGMVNHLPVMMAAVVIAMAVMLLASKPLTRFVNQHPTVVVLCLSFLLMIGLSLVAEGFGFHIPKGYLYAAIGFSIIIEVFNQIARRNFIRHQSTLPLRARTADAILRLMGGKRQANVQHDADNPMPMPIPEGAFAEEERYMINGVLTLASRSLRGIMTPRGEISWVDANLGVDEIREQLLSSPHSLFPVCRGELDEIIGIVRAKELLVALEEGVDVAAIASASPAIIVPETLDPINLLGVLRRARGSFVIVTNEFGVVQGLVTPLDVLEAIAGEFPDADETPEIITDGDGWLVKGGTDLHALQQALDVEHLADDDDIATVAGLVISANGHIPRVGDVIDVGPLHITIIEANDYRVDLVRIVKEQPAHDEDE [P0AEC0] | 6.99 ± 0.2 | 6.691 ± 0.015 | 6.46 ± 0.09 | 6.27 ± 0.49 | 5.4 ± 0.28 | – | 5.88 ± 0.19 | 12.3 ± 0.92 | 6.71 ± 0.84 | 14.2 ± 0.73 | 6.06 ± 0.7 | 12.2 ± 1.3 |
| MNDAVITLNGLEKRFPGMDKPAVAPLDCTIHAGYVTGLVGPDGAGKTTLMRMLAGLLKPDSGSATVIGFDPIKNDGALHAVLGYMPQKFGLYEDLTVMENLNLYADLRSVTGEARKQTFARLLEFTSLGPFTGRLAGKLSGGMKQKLGLACTLVGEPKVLLLDEPGVGVDPISRRELWQMVHELAGEGMLILWSTSYLDEAEQCRDVLLMNEGELLYQGEPKALTQTMAGRSFLMTSPHEGNRKLLQRALKLPQVSDGMIQGKSVRLILKKEATPDDIRHADGMPEININETTPRFEDAFIDLLGGAGTSESPLGAILHTVEGTPGETVIEAKELTKKFGDFAATDHVNFAVKRGEIFGLLGPNGAGKSTTFKMMCGLLVPTSGQALVLGMDLKESSGKARQHLGYMAQKFSLYGNLTVEQNLRFFSGVYGLRGRAQNEKISRMSEAFGLKSIASHATDELPLGFKQRLALACSLMHEPDILFLDEPTSGVDPLTRREFWLHINSMVEKGVTVMVTTHFMDEAEYCDRIGLVYRGKLIASGTPDDLKAQSANDEQPDPTMEQAFIQLIHDWDKEHSNE [P0A9U1] | 5.78 ± 0.23 | 6.03 ± 0.77 | 6.28 ± 0.41 | 6.03 ± 0.23 | 5.83 ± 0.5 | 3.32 ± 0.15 | – | 11.8 ± 2.2 | 6.05 ± 0.092 | 12.6 ± 1.7 | 6.15 ± 0.14 | 12.3 ± 0.47 |
| MIKKASLLTACSVTAFSAWAQDTSPDTLVVTANRFEQPRSTVLAPTTVVTRQDIDRWQSTSVNDVLRRLPGVDITQNGGSGQLSSIFIRGTNASHVLVLIDGVRLNLAGVSGSADLSQFPIALVQRVEYIRGPRSAVYGSDAIGGVVNIITTRDEPGTEISAGWGSNSYQNYDVSTQQQLGDKTRVTLLGDYAHTHGYDVVAYGNTGTQAQTDNDGFLSKTLYGALEHNFTDAWSGFVRGYGYDNRTNYDAYYSPGSPLLDTRKLYSQSWDAGLRYNGELIKSQLITSYSHSKDYNYDPHYGRYDSSATLDEMKQYTVQWANNVIVGHGSIGAGVDWQKQTTTPGTGYVEDGYDQRNTGIYLTGLQQVGDFTFEGAARSDDNSQFGRHGTWQTSAGWEFIEGYRFIASYGTSYKAPNLGQLYGFYGNPNLDPEKSKQWEGAFEGLTAGVNWRISGYRNDVSDLIDYDDHTLKYYNEGKARIKGVEATANFDTGPLTHTVSYDYVDARNAITDTPLLRRAKQQVKYQLDWQLYDFDWGITYQYLGTRYDKDYSSYPYQTVKMGGVSLWDLAVAYPVTSHLTVRGKIANLFDKDYETVYGYQTAGREYTLSGSYTF | 6.44 ± 0.73 | 6.76 ± 0.089 | 6.84 ± 0.059 | 6.49 ± 0.47 | 6.07 ± 0.27 | 3.26 ± 0.15 | 6.12 ± 0.2 | 12.3 ± 0.2 | 6.29 ± 0.28 | 13.5 ± 1.7 | 6.23 ± 0.18 | 12.8 ± 0.14 |
| MKITLSKRIGLLAILLPCALALSTTVHAETNKLVIESGDSAQSRQHAAMEKEQWNDTRNLRQKVNKRTEKEWDKADAAFDNRDKCEQSANINAYWEPNTLRCLDRRTGRVITP | 6.01 ± 0.36 | – | 4.407 ± 0.012 | 5.55 ± 1.8 | 4.06 ± 0.71 | – | 5.07 ± 0.96 | 7.11 ± 3.5 | 4.93 ± 0.28 | 11 ± 1.8 | 5.78 ± 0.18 | 12.4 ± 0.79 |
| MAIEIKVPDIGADEVEITEILVKVGDKVEAEQSLITVEGDKASMEVPSPQAGIVKEIKVSVGDKTQTGALIMIFDSADGAADAAPAQAEEKKEAAPAAAPAAAAAKDVNVPDIGSDEVEVTEILVKVGDKVEAEQSLITVEGDKASMEVPAPFAGTVKEIKVNVGDKVSTGSLIMVFEVAGEAGAAAPAAKQEAAPAAAPAPAAGVKEVNVPDIGGDEVEVTEVMVKVGDKVAAEQSLITVEGDKASMEVPAPFAGVVKELKVNVGDKVKTGSLIMIFEVEGAAPAAAPAKQEAAAPAPAAKAEAPAAAPAAKAEGKSEFAENDAYVHATPLIRRLAREFGVNLAKVKGTGRKGRILREDVQAYVKEAIKRAEAAPAATGGGIPGMLPWPKVDFSKFGEIEEVELGRIQKISGANLSRNWVMIPHVTHFDKTDITELEAFRKQQNEEAAKRKLDVKITPVVFIMKAVAAALEQMPRFNSSLSEDGQRLTLKKYINIGVAVDTPNGLVVPVFKDVNKKGIIELSRELMTISKKARDGKLTAGEMQGGCFTISSIGGLGTTHFAPIVNAPEVAILGVSKSAMEPVWNGKEFVPRLMLPISLSFDHRVIDGADGARFITIINNTLSDIRRLVM | 6.49 ± 0.23 | 6.08 ± 0.4 | 6.48 ± 0.081 | 6.36 ± 0.067 | 5.78 ± 0.37 | 3.08 ± 0.092 | 5.778 ± 0.018 | 10.6 ± 0.66 | 6.19 ± 0.27 | 12.3 ± 0.84 | 6.07 ± 0.26 | 12.5 ± 0.53 |
| MKSRAAVAFAPGKPLEIVEIDVAPPKKGEVLIKVTHTGVCHTDAFTLSGDDPEGVFPVVLGHEGAGVVVEVGEGVTSVKPGDHVIPLYTAECGECEFCRSGKTNLCVAVRETQGKGLMPDGTTRFSYNGQPLYHYMGCSTFSEYTVVAEVSLAKINPEANHEHVCLLGCGVTTGIGAVHNTAKVQPGDSVAVFGLGAIGLAVVQGARQAKAGRIIAIDTNPKKFDLARRFGATDCINPNDYDKPIKDVLLDINKWGIDHTFECIGNVNVMRAALESAHRGWGQSVIIGVAVAGQEISTRPFQLVTGRVWKGSAFGGVKGRSQLPGMVEDAMKGDIDLEPFVTHTMSLDEINDAFDLMHEGKSIRTVIRY | 5.33 ± 0.98 | 4.73 ± 0.68 | 4.43 ± 0.28 | 4.95 ± 0.45 | 4.24 ± 0.45 | 2.68 ± 0.26 | 5.87 ± 0.69 | 10.1 ± 1 | 4.1 ± 0.47 | 6.819 ± 0.021 | 5.6 ± 0.19 | 11.4 ± 0.52 |
| MGLCSRYKSLTCNSCSMHCQIMPEESPRLQYCANSCFCMWPEESSYFNRGVVEGILTKNHNARLSGYIFVDFSVSFLRLFLEKDWIDYLASTDMGIVLVSDRNMQSLANYWRKHNSAISAVIYNDDGLDVANEKIRQLFIGRYLSFTGGNTLTQMEFTIMGYMVSGYNPYQIAEVLDMDIRSIYAYKQRIEKRMGGKINELFIRSHSVQH | 4.5 ± 2.7 | – | – | – | – | – | – | – | – | – | – | – |
| MTTMLEVAKRAGVSKATVSRVLSGNGYVSQETKDRVFQAVEESGYRPNLLARNLSAKSTQTLGLVVTNTLYHGIYFSELLFHAARMAEEKGRQLLLADGKHSAEEERQAIQYLLDLRCDAIMIYPRFLSVDEIDDIIDAHSQPIMVLNRRLRKNSSHSVWCDHKQTSFNAVAELINAGHQEIAFLTGSMDSPTSIERLAGYKDALAQHGIALNEKLIANGKWTPASGAEGVEMLLERGAKFSALVASNDDMAIGAMKALHERGVAVPEQVSVIGFDDIAIAPYTVPALSSVKIPVTEMIQEIIGRLIFMLDGGDFSPPKTFSGKLIRRDSLIAPSR | – | 4.95 | 3.46 ± 0.2 | 4.26 ± 0.14 | 3.44 ± 0.13 | 3 ± 0.72 | 4.91 ± 0.77 | 8.06 ± 0.59 | 3.59 | 5.73 ± 0.34 | 2.66 ± 0.17 | 7.06 ± 0.59 |
